# Assay results published in patent publication US20260139049A1 (PEDIATRIC IMMUNITY AND HEALTHCARE GUANGZHOU BIOTECHNOLOGY, published 2026).
# B1: IMAB027 (antibody, human IgG1, kappa, V domains shown)
# VH: EVQLQQSGPELVKPGASMKISCKASGYSFTGYTMNWVKQSHGKNLEWIGLINPYNGGTIYNQKFKGKATLTVDKSSSTAYMELLSLTSEDSAVYYCARDYGFVLDYWGQGTTLTVSS
# VL: IVLTQSPAIMSASPGEKVTITCSASSSVSYLHWFQQKPGTSPKLWVYSTSNLPSGVPARFGGSGSGTSYSLTISRMEAEDAATYYCQQRSIYPPWTFGGGTKLEIKR
# notes: variable regions of mAb206-LCC on human IgG1 constant regions; also called benchmark antibody; control antibody
# Assays:
# human CLDN9 = target: T1, human CLDN9 (human, UniProt O95484 1-217); experiment: FACS on 293T-CLDN9 cells, 10 µg/mL
# T1 construct: whole, on cells; also called HEK293T-CLDN9
# T1 sequence (looked up): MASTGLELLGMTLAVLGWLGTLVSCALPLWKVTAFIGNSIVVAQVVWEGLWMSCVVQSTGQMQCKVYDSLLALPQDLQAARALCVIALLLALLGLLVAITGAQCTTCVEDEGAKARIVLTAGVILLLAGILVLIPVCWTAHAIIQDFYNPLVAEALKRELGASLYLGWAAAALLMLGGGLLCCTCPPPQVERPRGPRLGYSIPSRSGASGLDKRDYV
# Description: (§1) 50 μL of an antibody to be tested was added to a 96-well plate, then 1× 10⁵ cells were added to each well, and incubation was conducted at 4° C. for 1 h. Cells were washed three times with PBS. […] Finally, cells were washed three times with PBS, and signals were read using FACS. Binding capacities of the antibody to CLDN9, CLDN3, and CLDN4 were analyzed separately based on detection data.
# [1] = target: T2, monkey CLDN6 (Cyno CLDN6) (monkey (Cyno)); experiment: FACS on CHO-K1-Cyno CLDN6 cells
# T2 construct: whole, on cells; also called CHO-K1-Cyno CLDN6
# human CLDN6 [2] = target: T3, human CLDN6 (human, UniProt P56747 1-220); experiment: ratio of FACS Geom.Mean on 293T-CLDN6 over 293T-CLDN9, 10 µg/mL
# T3 construct: whole, on cells; four-transmembrane protein; also called claudin-6; HEK293T-CLDN6
# T3 sequence (looked up): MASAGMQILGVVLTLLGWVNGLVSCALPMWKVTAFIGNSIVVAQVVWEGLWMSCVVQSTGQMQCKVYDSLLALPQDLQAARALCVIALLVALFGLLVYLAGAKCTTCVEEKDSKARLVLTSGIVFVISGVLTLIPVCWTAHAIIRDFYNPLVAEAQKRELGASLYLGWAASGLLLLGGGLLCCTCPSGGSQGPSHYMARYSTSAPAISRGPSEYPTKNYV
# Description: as §1
# human CLDN6 [3] = target: T3, human CLDN6; experiment: FACS on 293T-CLDN6 cells, 10 µg/mL
# human CLDN6 [4] = target: T3, human CLDN6; experiment: FACS on HEK293T-CLDN6 cells
# Description: (§2) To detect a binding capacity of a chimeric or humanized antibody to CLDN6, a CLDN6-expressing cell line HEK293T-CLDN6 and a CLDN6-negative control cell line HEK293T were washed three times with PBS. 1×10⁵ test cells and 50 μL of an antibody solution to be tested were added to a 96-well plate, and incubated at 4° C. for 1 h. The cells were then washed three times with PBS. […] Finally, cells were washed three times with PBS, and signals were read using FACS.
# (§3) An EC50 value (a concentration of an antibody that binds to half of binding sites at equilibrium) is calculated through nonlinear regression.
# human CLDN6 [5] = target: T3, human CLDN6; experiment: FACS on HepG2 tumour cells; target on the cells taken as CLDN6
# Description: as §1, with “1×10⁵” for “1× 10⁵”, “A binding capacity” for “Binding capacities”, “each tumor cell was” for “CLDN9, CLDN3, and CLDN4 were”, “analyzed” for “analyzed separately”
# human CLDN6 [6] = target: T3, human CLDN6; experiment: FACS on HEK293T-CLDN6 cells; remark: listed apart in the source
# Description: as §2, §3
# human CLDN6 [7] = target: T3, human CLDN6; experiment: FACS on PA-1 tumour cells; target on the cells taken as CLDN6
# Description: as §1, with “1×10⁵” for “1× 10⁵”, “A binding capacity” for “Binding capacities”, “each tumor cell was” for “CLDN9, CLDN3, and CLDN4 were”, “analyzed” for “analyzed separately”
# human CLDN6 [8] = target: T3, human CLDN6; experiment: FACS on HepG2 tumour cells, 5 µg/mL; target on the cells taken as CLDN6
# Description: as §1, with “1×10⁵” for “1× 10⁵”, “A binding capacity” for “Binding capacities”, “each tumor cell was” for “CLDN9, CLDN3, and CLDN4 were”, “analyzed” for “analyzed separately”
binder,measurement,setting,value
B1,Geom.Mean,human CLDN9,985
same,EC50,[1],0.131 µg/mL
same,CLDN6/CLDN9 ratio,human CLDN6 [2],45
same,Geom.Mean,human CLDN6 [3],23600
same,EC50,human CLDN6 [4],0.282 µg/mL
same,EC50,human CLDN6 [5],0.242 µg/mL
same,EC50,human CLDN6 [6],0.0469 µg/mL
same,EC50,human CLDN6 [7],0.223 µg/mL
same,Geom.Mean,human CLDN6 [8],970
